Measurements as given in the supplement of paper PMC7877785.
± gives the uncertainty stated by the source.

Test: self-splicing fitness, log relative to wild type (ln ratio); higher = more splicing; Tetrahymena group I intron in knt gene, E. coli kanamycin selection, DiMSum; sequences stand for … in CUCUCU…GGAGGGAAAAGUUAUCAGGCAUGCACCUGGUAGCUAGUCUUUAAACCAAUAGAUUGCAUCGGUUUAAAAGGCAAGACCGUCAAAUUGCGGGAAAGGGGUCAACAGCCGUUCAGUACCAAGUCUCAGGGGAAACUUUGAGAUGGCCUUGCAAAGGGUAUGGUAAUAAGCUGACGGACAUGGUCCUAACCACGCAGCCAAGUCCUAAGUCAACAGAUCUUCUGUUGAUAUGGAUGCAGUUCACAGACUAAAUGUCGGUCGGGGAAGAUGUAUUCUUCUCAUAAGAUAUAGUCGGACCUCUCCUUAAUGGGAGCUAGCGGAUGAAGUGAUGCAACACUGGAGCCGCUGGGAACUAAUUUGUAUGCGAAAGUAUAUUGAUUAGUUUUGGAGUACUCGUGGUCG
Method in brief: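 Fitness was computed with DiMSum as the error-weighted combination of replicate fold changes, kanamycin versus none, each normalised to wild type. The library randomised all eight intron nucleotides of the P1ex region, with the intron placed in the knt kanamycin-resistance gene on pET-22b(+) in E. coli BL21(DE3). Six replicate transformations were grown overnight at 37°C or 30°C on LB agar with or without 25 μg/mL kanamycin, plus 100 μg/mL carbenicillin, 50 μM IPTG and 0.2% rhamnose. Pooled colonies were amplicon-sequenced on an Illumina HiSeq 2500.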

| Sequence | self-splicing fitness (ln) (30 °C) | self-splicing fitness (ln) (37 °C) |
| --- | --- | --- |
| UGUGAGCAAUAUUACGGACA | -1.44 ± 0.13 | 0.089 ± 0.13 |
| UUAGAGCAAUAUUACGUCAC | – | -2.76 ± 0.48 |
| CCAAAGCAAUAUUACGUGCU | -4.12 ± 0.18 | -2.88 ± 0.18 |
| CGUCAGCAAUAUUACGUAGG | -0.704 ± 0.055 | 0.23 ± 0.086 |
| AAACAGCAAUAUUACGCGCC | -1.13 ± 0.1 | -0.456 ± 0.12 |
| UGUUAGCAAUAUUACGAGGG | -3.43 ± 0.26 | -1.84 ± 0.23 |
| ACCAAGCAAUAUUACGUUCU | -1.56 ± 0.06 | -0.915 ± 0.076 |
| CGUAAGCAAUAUUACGUUAG | -1.34 ± 0.072 | -0.964 ± 0.081 |
| CUAGAGCAAUAUUACGAGCA | – | -3.27 ± 0.31 |
| GCCUAGCAAUAUUACGUAUG | -3.92 ± 0.16 | -2.61 ± 0.13 |
| GACUAGCAAUAUUACGUAUC | -2.74 ± 0.11 | -1.98 ± 0.12 |
| UAGUAGCAAUAUUACGCUAA | -2.12 ± 0.28 | -1.3 ± 0.15 |
| UAUUAGCAAUAUUACGACCG | 0.0866 ± 0.13 | -0.0729 ± 0.16 |
| UCAGAGCAAUAUUACGGGGU | -3.35 ± 0.23 | -2.88 ± 0.27 |
| UUAUAGCAAUAUUACGACCU | -3.38 ± 0.29 | -0.509 ± 0.18 |
| UUCAAGCAAUAUUACGAGCG | -1.3 ± 0.087 | -0.359 ± 0.099 |
| CGCAAGCAAUAUUACGGCCG | -1.1 ± 0.14 | -0.644 ± 0.26 |
| CAACAGCAAUAUUACGUUAA | -2.36 ± 0.11 | -2.16 ± 0.12 |
| UACUAGCAAUAUUACGGAUU | -2.82 ± 0.12 | -1.56 ± 0.13 |
| GAGUAGCAAUAUUACGUAGU | -4.34 ± 0.31 | -2.68 ± 0.2 |
| UUCAAGCAAUAUUACGACUC | -1.98 ± 0.24 | -0.791 ± 0.22 |
